{"source": "patent US20250304640A1", "about": "(ORIKINE BIO SL, published 2025)", "binders": {"B1": {"name": "CSF1-IL10-HiBit (ligand)", "chain": "EEVSEYCSHMIGSGHLQSLQRLIDSQMETSCQITFEFVDQEQLKDPVCYLKKAFLLVQDIMEDTMRFRDNTPNAIAIVQLQELSLRLKSCFTKDYEEHDKACVRTFYETPLQLLEKVKNVFNETKNLLDKDWNIFSKNCNNSFAECSSQDGGGGGSGGSGGSGGSGGSGGSGGSGGSGGGSPGQGTQSENSCTHFPGNLPNMLRDLRDAFSRVKTFFQMKDQLDNLLLKESLLEDFKGYLGCQALSEMIQFYLEEVMPQAENQDPDIKAHVNSLGENLKTLRLRLRRCHRFLPCENKSKAVEQVKNAFNKLQEKGIYKAMSEFDIFINYIEAYMTMKIRNGGVSGWRLFKKIS"}, "B2": {"name": "Foldikine10-CSF1-HiBit (ligand)", "chain": "MTQSENSCTHFPGNLPNMLRDLRDAFSRVKTFFQMKDQLDNLLLKESLLEDFKGYLGCQALSEMIQFYLEEVMPQAENQEPDIKAHVNSLGENLKTLRLRLRRCHRFLPCENKSKAVEQVKNAFNKLQEKGIYKAMSEFDIFINYIEAYMTMNNGGLDYLPNMLRDLRDAFSRVKTFFQMKDQLDNLLLKESLLEDFKGYLGCQALSEMIQFYLEEVMPQAENQDPDIKAHVNSLGENLKTLRLRLRRNHRFLPCENKSKAVEQVKNAFNKLQEKGIYKAMSEFDIFINYIEAYMTMKIRNGGGGGSGGSGGSGGSGGSGGSGGSGGSGGGEEVSEYCSHMIGSGHLQSLQRLIDSQMETSCQITFEFVDQEQLKDPVCYLKKAFLLVQDIMEDTMRFRDNTPNAIAIVQLQELSLRLKSCFTKDYEEHDKACVRTFYETPLQLLEKVKNVFNETKNLLDKDWNIFSKNCNNSFAECSSQDGGVSGWRLFKKIS"}, "B3": {"name": "Foldikine10_cut116-CSF1-HiBit (ligand)", "chain": "NKSKAVEQVKNAFNKLQEKGIYKAMSEFDIFINYIEAYMTMNNGGLDYLPNMLRDLRDAFSRVKTFFQMKDQLDNLLLKESLLEDFKGYLGCQALSEMIQFYLEEVMPQAENQDPDIKAHVNSLGENLKTLRLRLRRNHRFLPCENKSKAVEQVKNAFNKLQEKGIYKAMSEFDIFINYIEAYMTMNNGGLDYLPNMLRDLRDAFSRVKTFFQMKDQLDNLLLKESLLEDFKGYLGCQALSEMIQFYLEEVMPQAENQDPDIKAHVNSLGENLKTLRLRLRRNHRFLPCEGGGGGSGGSGGSGGSGGSGGSGGSGGSGGGEEVSEYCSHMIGSGHLQSLQRLIDSQMETSCQITFEFVDQEQLKDPVCYLKKAFLLVQDIMEDTMRFRDNTPNAIAIVQLQELSLRLKSCFTKDYEEHDKACVRTFYETPLQLLEKVKNVFNETKNLLDKDWNIFSKNCNNSFAECSSQDGGGVSGWRLFKKIS"}, "B4": {"name": "IL-10-CSF1-HiBit (ligand)", "chain": "SPGQGTQSENSCTHFPGNLPNMLRDLRDAFSRVKTFFQMKDQLDNLLLKESLLEDFKGYLGCQALSEMIQFYLEEVMPQAENQDPDIKAHVNSLGENLKTLRLRLRRCHRFLPCENKSKAVEQVKNAFNKLQEKGIYKAMSEFDIFINYIEAYMTMKIRNGGGGGSGGSGGSGGSGGSGGSGGSGGSGGGEEVSEYCSHMIGSGHLQSLQRLIDSQMETSCQITFEFVDQEQLKDPVCYLKKAFLLVQDIMEDTMRFRDNTPNAIAIVQLQELSLRLKSCFTKDYEEHDKACVRTFYETPLQLLEKVKNVFNETKNLLDKDWNIFSKNCNNSFAECSSQDGGVSGWRLFKKIS"}, "B5": {"name": "CSF1-35AA-Foldikine10-HiBit (ligand)", "chain": "EEVSEYCSHMIGSGHLQSLQRLIDSQMETSCQITFEFVDQEQLKDPVCYLKKAFLLVQDIMEDTMRFRDNTPNAIAIVQLQELSLRLKSCFTKDYEEHDKACVRTFYETPLQLLEKVKNVFNETKNLLDKDWNIFSKNCNNSFAECSSQDGGGGGSGGGGSGGSGGSGGSGGSGGSGGSGGSGGGMTQSENSCTHFPGNLPNMLRDLRDAFSRVKTFFQMKDQLDNLLLKESLLEDFKGYLGCQALSEMIQFYLEEVMPQAENQEPDIKAHVNSLGENLKTLRLRLRRCHRFLPCENKSKAVEQVKNAFNKLQEKGIYKAMSEFDIFINYIEAYMTMNNGGLDYLPNMLRDLRDAFSRVKTFFQMKDQLDNLLLKESLLEDFKGYLGCQALSEMIQFYLEEVMPQAENQDPDIKAHVNSLGENLKTLRLRLRRNHRFLPCENKSKAVEQVKNAFNKLQEKGIYKAMSEFDIFINYIEAYMTMKIRNGGVSGWRLFKKIS"}, "B6": {"name": "CSF1-Foldikine10_cut116-HiBit (ligand)", "chain": "EEVSEYCSHMIGSGHLQSLQRLIDSQMETSCQITFEFVDQEQLKDPVCYLKKAFLLVQDIMEDTMRFRDNTPNAIAIVQLQELSLRLKSCFTKDYEEHDKACVRTFYETPLQLLEKVKNVFNETKNLLDKDWNIFSKNCNNSFAECSSQDGGGGGSGGSGGSGGSGGSGGSGGSGGSGGGMTQSENSCTHFPGNLPNMLRDLRDAFSRVKTFFQMKDQLDNLLLKESLLEDFKGYLGCQALSEMIQFYLEEVMPQAENQEPDIKAHVNSLGENLKTLRLRLRRCHRFLPCENKSKAVEQVKNAFNKLQEKGIYKAMSEFDIFINYIEAYMTMNNGGLDYLPNMLRDLRDAFSRVKTFFQMKDQLDNLLLKESLLEDFKGYLGCQALSEMIQFYLEEVMPQAENQDPDIKAHVNSLGENLKTLRLRLRRNHRFLPCENKSKAVEQVKNAFNKLQEKGIYKAMSEFDIFINYIEAYMTMKIRNGGVSGWRLFKKIS"}, "B7": {"name": "CSF1-25AA-Foldikine10-HiBit (ligand)", "chain": "B6 chain"}, "B8": {"name": "ORK10-003-HiBit (ligand)", "chain": "MTQSENSCTHFPGNLPNMLRDLRDAFSRVKTFFQMKDQLDNLLLKESLLEDFKGYLGCQALSEMIQFYLEEVMPQAENQDPDIKAHVNSLGENLKTLRLRLRRCHRFLPCENKSKAVEQVKNAFNKLQEKGIYKAMSEFDIFINYIEAYLYKTITPEFANMLRDLRDAFSRVKTFFQMKDQLDNLLLKESLLEDFKGYLGCQALSEMIQFYLEEVMPQAENQDPDIKAHVNSLGENLKTLRLRLRRCHRFLPCENKSKAVEQVKNAFNKLQEKGIYKAMSEFDIFINYIEAYMTMGGVSGWRLFKKIS"}, "B9": {"name": "ORK10-003-HiBit N92E (ligand)", "chain": "B8 chain with N231E"}, "B10": {"name": "Foldikine10_cut116 (ligand)", "chain": "NKSKAVEQVKNAFNKLQEKGIYKAMSEFDIFINYIEAYMTMNNGGLDYLPNMLRDLRDAFSRVKTFFQMKDQLDNLLLKESLLEDFKGYLGCQALSEMIQFYLEEVMPQAENQDPDIKAHVNSLGENLKTLRLRLRRNHRFLPCENKSKAVEQVKNAFNKLQEKGIYKAMSEFDIFINYIEAYMTMNNGGLDYLPNMLRDLRDAFSRVKTFFQMKDQLDNLLLKESLLEDFKGYLGCQALSEMIQFYLEEVMPQAENQDPDIKAHVNSLGENLKTLRLRLRRNHRFLPCE"}}, "assay_in_all_cases": "cell-based or functional assay", "key": {"[1]": {"biological_target": "T1, IL-10 receptor (IL-10R: IL10RA and IL10RB) on HEK-Blue IL-10 reporter cells (UniProt Q13651 22-578; Q08334 20-325, limits assumed)", "T1 sequence (looked up) 1": "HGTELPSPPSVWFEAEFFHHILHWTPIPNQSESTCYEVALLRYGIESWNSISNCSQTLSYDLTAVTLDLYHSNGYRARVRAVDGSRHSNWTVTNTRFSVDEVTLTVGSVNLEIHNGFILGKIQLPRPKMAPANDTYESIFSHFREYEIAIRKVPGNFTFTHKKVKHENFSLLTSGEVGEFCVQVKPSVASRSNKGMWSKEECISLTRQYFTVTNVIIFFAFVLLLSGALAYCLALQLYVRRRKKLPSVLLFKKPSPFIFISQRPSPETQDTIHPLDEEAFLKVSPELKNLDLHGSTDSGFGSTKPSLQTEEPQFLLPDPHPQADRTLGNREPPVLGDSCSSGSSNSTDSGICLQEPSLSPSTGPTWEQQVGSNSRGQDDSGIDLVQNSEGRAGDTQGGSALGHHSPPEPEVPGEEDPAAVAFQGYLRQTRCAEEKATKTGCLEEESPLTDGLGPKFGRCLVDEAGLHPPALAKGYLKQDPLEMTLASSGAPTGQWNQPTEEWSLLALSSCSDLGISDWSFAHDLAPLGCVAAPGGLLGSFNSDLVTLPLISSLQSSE", "T1 sequence (looked up) 2": "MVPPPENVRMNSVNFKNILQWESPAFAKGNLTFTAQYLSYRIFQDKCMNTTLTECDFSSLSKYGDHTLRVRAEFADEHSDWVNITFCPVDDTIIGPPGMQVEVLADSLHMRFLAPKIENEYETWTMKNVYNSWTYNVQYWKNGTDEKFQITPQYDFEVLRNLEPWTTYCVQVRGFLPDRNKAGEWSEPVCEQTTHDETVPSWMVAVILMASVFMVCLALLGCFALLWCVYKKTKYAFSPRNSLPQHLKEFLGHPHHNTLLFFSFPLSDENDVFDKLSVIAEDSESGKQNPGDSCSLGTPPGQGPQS"}, "[2]": {"biological_target": "T2, CSF1 receptor (CSF1R) (UniProt P07333 20-972, limits assumed)", "T2 sequence (P07333 20-972 limits assumed)": "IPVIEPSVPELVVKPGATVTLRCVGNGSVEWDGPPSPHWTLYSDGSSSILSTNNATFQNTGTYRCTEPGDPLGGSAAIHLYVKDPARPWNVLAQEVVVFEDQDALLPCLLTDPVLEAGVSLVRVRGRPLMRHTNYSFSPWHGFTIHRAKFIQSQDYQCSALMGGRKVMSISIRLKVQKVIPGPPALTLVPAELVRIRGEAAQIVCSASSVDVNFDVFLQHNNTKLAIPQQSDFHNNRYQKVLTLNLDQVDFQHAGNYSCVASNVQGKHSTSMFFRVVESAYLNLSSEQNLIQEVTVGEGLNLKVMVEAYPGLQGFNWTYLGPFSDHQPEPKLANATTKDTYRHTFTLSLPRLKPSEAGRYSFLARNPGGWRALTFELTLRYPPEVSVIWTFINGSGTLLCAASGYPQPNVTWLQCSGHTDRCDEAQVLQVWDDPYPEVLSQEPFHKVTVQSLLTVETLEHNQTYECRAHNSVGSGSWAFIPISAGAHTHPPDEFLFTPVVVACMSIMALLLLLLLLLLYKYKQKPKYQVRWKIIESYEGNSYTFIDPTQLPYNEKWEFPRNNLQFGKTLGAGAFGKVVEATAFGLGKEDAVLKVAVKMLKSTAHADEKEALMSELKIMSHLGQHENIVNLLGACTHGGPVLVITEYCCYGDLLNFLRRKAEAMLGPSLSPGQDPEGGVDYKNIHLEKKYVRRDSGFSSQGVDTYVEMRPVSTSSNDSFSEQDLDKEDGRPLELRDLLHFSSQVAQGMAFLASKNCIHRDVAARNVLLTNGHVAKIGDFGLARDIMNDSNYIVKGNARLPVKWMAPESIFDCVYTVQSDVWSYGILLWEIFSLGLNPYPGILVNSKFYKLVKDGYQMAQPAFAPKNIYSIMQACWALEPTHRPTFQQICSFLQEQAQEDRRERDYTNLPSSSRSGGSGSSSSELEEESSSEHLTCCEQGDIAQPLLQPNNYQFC"}, "[3]": {"biological_target": "T1, IL-10 receptor (IL-10R: IL10RA and …)", "remark": "listed apart in the source"}, "[4]": {"biological_target": "T1, IL-10 receptor (IL-10R: IL10RA and …)", "remark": "listed apart in the source"}, "[5]": {"biological_target": "T2, CSF1 receptor (CSF1R)", "remark": "listed apart in the source"}, "[6]": {"biological_target": "T3, IL10RA (UniProt Q13651 22-578, limits assumed)", "T3 sequence (looked up)": "T1 sequence (looked up) 1"}, "[7]": {"biological_target": "T4, IL10RB (UniProt Q08334 20-325, limits assumed)", "T4 sequence (looked up)": "T1 sequence (looked up) 2"}}, "note": "Numbering of substitutions follows the chain as printed. Names and notes keep the numbering of the source. Where two headings read alike, the source gives them in different places.", "data": [{"binder": "B1", "values": [{"measurement": "IL-10 EC-50, HEK-Blue IL-10 reporter cells", "setting": "[1]", "value": "1.16e-09"}, {"measurement": "CSF1 EC-50, HEK293 CSF1R/SRE reporter", "setting": "[2]", "value": "7.81e-10"}]}, {"binder": "B2", "values": [{"measurement": "IL-10 EC-50, HEK-Blue IL-10 reporter cells", "setting": "[1]", "value": "1.36e-09"}, {"measurement": "CSF1 EC-50, HEK293 CSF1R/SRE reporter", "setting": "[2]", "value": "3.18e-09"}]}, {"binder": "B3", "values": [{"measurement": "IL-10 EC-50, HEK-Blue IL-10 reporter cells", "setting": "[3]", "value": "4.95e-10"}]}, {"binder": "B4", "values": [{"measurement": "IL-10 EC-50, HEK-Blue IL-10 reporter cells", "setting": "[1]", "value": "5.9e-09"}, {"measurement": "CSF1 EC-50, HEK293 CSF1R/SRE reporter", "setting": "[2]", "value": "4.64e-09"}]}, {"binder": "B5", "values": [{"measurement": "EC-50 for IL10 activity, HEK-Blue IL-10 reporter cells", "setting": "[4]", "value": "3.18e-10"}, {"measurement": "EC-50 for CSF1 activity, HEK293 CSF1R/SRE reporter", "setting": "[5]", "value": "1.83e-09"}]}, {"binder": "B6", "values": [{"measurement": "IL-10 EC-50, HEK-Blue IL-10 reporter cells", "setting": "[3]", "value": "3.06e-10"}]}, {"binder": "B7", "values": [{"measurement": "EC-50 for IL10 activity, HEK-Blue IL-10 reporter cells", "setting": "[4]", "value": "3.61e-10"}, {"measurement": "EC-50 for CSF1 activity, HEK293 CSF1R/SRE reporter", "setting": "[5]", "value": "1.64e-09"}]}, {"binder": "B8", "values": [{"measurement": "EC-50, HEK-Blue IL-10 reporter cells", "setting": "[6]", "value": "9.44e-11"}, {"measurement": "EC-50, HEK-Blue IL-10 reporter cells", "setting": "[7]", "value": "9.53e-11"}]}, {"binder": "B9", "values": [{"measurement": "EC-50, HEK-Blue IL-10 reporter cells", "setting": "[7]", "value": "1.19e-10"}]}, {"binder": "B10", "values": [{"measurement": "IL-10 EC-50, HEK-Blue IL-10 reporter cells", "setting": "[3]", "value": "2.41e-10"}]}]}
